Results from paper PMC2978106, “The Arabidopsis ABA-Activated Kinase OST1 Phosphorylates the bZIP Transcription Factor ABF3 and Creates a 14-3-3 Binding Site Involved in Its Turnover” (PLoS ONE, 2010).
Where no end group is shown, it is not given here. [ ]: non-standard residue; d: D form. pT = C[C@@H](OP(=O)(O)O)[C@H](N)C(=O)O

Biological target: T1, Arabidopsis 14-3-3 protein GF14phi fused to GST (Arabidopsis, UniProt P46077 1-267)
T1 construct: 14-3-3 protein GF14phi of Arabidopsis; also called GST-14-3-3; source: E. coli, loaded on glutathione beads
T1 sequence (looked up): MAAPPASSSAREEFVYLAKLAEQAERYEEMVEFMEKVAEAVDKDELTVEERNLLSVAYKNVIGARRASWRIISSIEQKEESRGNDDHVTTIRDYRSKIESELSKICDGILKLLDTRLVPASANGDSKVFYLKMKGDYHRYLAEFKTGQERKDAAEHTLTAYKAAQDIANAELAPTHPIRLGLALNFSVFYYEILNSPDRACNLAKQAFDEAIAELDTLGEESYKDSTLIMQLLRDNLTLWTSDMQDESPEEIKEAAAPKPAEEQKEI
Experiment: pull-down; GST-GF14phi (0.4 nmole) on glutathione beads; 15 µM peptide phosphorylated by OST1 with ATP^γ32; 30 min at 25°C; 20 mM Tris-HCl pH 7.5, 150 mM NaCl, 1 mM CaCl2, 1 mM DTT, 0.05% Tween20; bound peptide counted by Cerenkov counting
Details: both partners purified

B1: ABF3T451 peptide phosphorylated by OST1 (peptide)
peptide: KKRQCLRRTL[pT]GPW
modifications: also: phosphothreonine at T451 (T9 or T11 of chain, not fixed by letters)
notes: residues printed before L446 of the ABF3T451 peptide; C-terminal end of ABF3 (C4 domain, LXRXXTXP motif with T451), Arabidopsis thaliana, At4g34000; It holds two threonines (T449, T451); also called pABF3T451; phospho-ABF3T451
**Q.** Does B1 bind?
**A.** Result: binds
